Source: publication PMC8679783 (2021)

Molecular target: RDO24_mFab2 (mouse, UniProt P01863 = IgG part)
Assay: SPR

B1: recombinant human MET ECD-Fc (Recombinant Human HGFR/c-MET Fc Chimera His-tag Protein) (Fc fusion)
chain: ECKEALAKSEMNVNMKYQLPNFTAETPIQNVILHEHHIFLGATNYIYVLNEEDLQKVAEYKTGPVLEHPDCFPCQDCSSKANLSGGVWKDNINMALVVDTYYDDQLISCGSVNRGTCQRHVFPHNHTADIQSEVHCIFSPQIEEPSQCPDCVVSALGAKVLSSVKDRFINFFVGNTINSSYFPDHPLHSISVRRLKETKDGFMFLTDQSYIDVLPEFRDSYPIKYVHAFESNNFIYFLTVQRETLDAQTFHTRIIRFCSINSGLHSYMEMPLECILTEKRKKRSTKKEVFNILQAAYVSKPGAQLARQIGASLNDDILFGVFAQSKPDSAEPMDRSAMCAFPIKYVNDFFNKIVNKNNVRCLQHFYGPNHEHCFNRTLLRNSSGCEARRDEYRTEFTTALQRVDLFMGQFSEVLLTSISTFIKGDLTIANLGTSEGRFMQVVVSRSGPSTPHVNFLLDSHPVSPEVIVEHTLNQNGYTLVITGKKITKIPLNGLGCRHFQSCSQCLSAPPFVQCGWCHDKCVRSEECLSGTWTQQICLPAIYKVFPNSAPLEGGTRLTICGWDFGFRRNNKFDLKKTRVLLGNESCTLTLSESTMNTLKCTVGPAMNKHFNMSIIISNGHGTTQYSTFSYVDPVITSISPKYGPMAGGTLLTLTGNYLNSGNSRHISIGGKTCTLKSVSNSILECYTPAQTISTEFAVKLKIDLANRETSIFSYREDPIVYEIHPTKSFISGGSTITGVGKNLNSVSVPRMVINVHEAGRNFTVACQHRSNSEIICCTTPSLQQLNLQLPLKTKAFFMLDGILSKYFDLIYVHNPVFKPFEKPVMISMGNENVLEIKGNDIDPEAVKGEVLKVGNKSCENIHLHSEAVLCTVPNDLLKLNSELNIEWKQAISSTVLGKVIVQPDQNFT
A koff of 0.000335 s⁻¹ was found for B1 in this work.
